Results reported in paper PMC5941314 (2018).

How the values were obtained:
Assay in all cases: ITC 25 C, TWO LABS merged (one a row), salt differs
UBE2D2 = UBE2D2 (Homo sapiens (Human), UniProt P62837)
UBE2L3 = UBE2L3 (Homo sapiens (Human), UniProt P68036)
UBE2N = target: T1, UBE2N (Homo sapiens (Human), UniProt P61088)
T1 chain: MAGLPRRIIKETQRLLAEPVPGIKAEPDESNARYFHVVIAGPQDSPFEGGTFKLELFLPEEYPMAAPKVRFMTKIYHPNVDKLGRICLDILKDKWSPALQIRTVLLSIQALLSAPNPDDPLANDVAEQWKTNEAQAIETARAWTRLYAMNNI

Sequence of UBE2L3 (P68036 whole entry): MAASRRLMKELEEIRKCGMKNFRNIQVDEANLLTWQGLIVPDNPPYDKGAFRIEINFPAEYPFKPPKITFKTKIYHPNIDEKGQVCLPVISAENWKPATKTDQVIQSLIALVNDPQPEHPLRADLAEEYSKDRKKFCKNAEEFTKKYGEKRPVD
Sequence of UBE2D2 (P62837 whole entry, looked up): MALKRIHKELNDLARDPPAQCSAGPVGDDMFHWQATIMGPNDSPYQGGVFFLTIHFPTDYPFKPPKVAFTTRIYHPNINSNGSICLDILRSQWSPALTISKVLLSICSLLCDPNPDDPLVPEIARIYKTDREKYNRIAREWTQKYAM

B1: Arkadia (protein)
chain: KQDGEEGTEEDTEEKCTICLSILEEGEDVRRLPCMHLFHQVCVDQWLITNKKCPICRVDIEAQLPSES
UBE2D2
  Kd: 32 µM
UBE2L3
  Kd: 27.3 µM
UBE2N
  Kd: 264 µM
